In a protein production outcome set (Wang et al. 2014) one finds protein production data, which are given here for eleven sequences.

The series can be described thus: label from the status in PepcDB records.
In the case of “MYVFTIGYFTIPANLFSLITSRYSAERKNVGGIVIINLIAGISSSLVFALLVPYYISLTKLDVPIYFYSAISLIILTYLLTVTNSIAQGRTPKIVGISALIFQVLRLVSGIIFMFIFNLSILAVILAYSIGYLAQVLFNLFFIRANLKIDFKVAFSAVRKAVVYIANYIQYILEASIVWITLGIVNSDLVVAYFESAIIVSNIQIGHKQYIQGLWLS”, the protein production result was “failed”.
As to “MYYNIALAYTHLDIHHLAIHFVNMALEGFRSEYKFRNIINCQILIAVSYTEKGQYEEALKMYESILREATSFADKDVLLAITLSNMGSIYYKKGKYQQAKKYYLDSLQLQKQIDLNYLDTIYEMALVCIKLEELEEARTLIDKGIDAAKQEERFNAKLYLLLMLRYKYFEEAKDYKAFLENEAIPLYKSAGNKIELKKVYVELAEHFSSLSRFEESNRYYRLVIDLMNDNKEE”, the protein production result was “failed”.
With “MYYVYVAGYILLAAAMQLFTGNFPVSFLAFPLNIIFAAIWLFLLWILYKEYNNLRITRFLGSSKASVLSISLFIGGCLIIGLFPQLSEPEAEMRKGISASLGCYNFMTSWIFISILLLLLSNLAMITIHACRHRKQARWRFILNHTGLWLALFAGFLGSSDTQTLRIPLYKGEPKHEAFDMNGASYYLDYDMELNSFAVEYYPNGRPSRFSANVRLGNENVLLEVNHPYSYRLGEDVYLTGYDVTKGNESNYCILQVVKQPWKYVMVAGILMMLAGAVLLFINGAKAYDKLG”, the protein production result is listed as “failed”.
For “NALHIINMVGTRNATDYGKHICVSFLQELQMLCPDVLVVSGLAYGIDINAHRSALSVELPTVGVLAHGLDRIYPSLHRKTAIDMLRQGGLLTEFLSGTNPDKHNFISRNRIVAGISDATIVVESAAKGGSLITADIAGSYHRDCFAFPGR”, the protein production result was “failed”.
With “NAMVLREDIDKLKLLAQQFEQELQAYNTRIGNLETRIAYLEDRQFSVTTKLTGDSIWVLSGVGGSEQADGPPDQPVQNGEVTVNFRQRINFNTSFSGEDNLLIRLQSANFFLARGGSNLTDFNFAATEEQGNVNINKMQYSFPVGDRARIWLAGNRITMDDIMDPLAPYTNSFTDGAVSFFGAIAPIYLPNDNSGPGAGFSYNFTDDLSLGGFYSAGKGFSPNQSEGLFNGQFGVGAQLNYVPAANTGVAFSYLHNYIPQGQYDSFSALGYTGLANTDNPFDDAASSTNHYAVIWTWQLADWFSLEGWGMYSDATAKSGDRQGDTADIWNWKVSLAFPDLGKEGNVGVVSVGQPPYASFISNNNNVPDITPATTDAPWFVETFYLYQFNDNISLTPAFWIGINPANGRDPLWVAALRTSFKF”, the protein production entry was “failed”.
Take “NANDQAIAYVMLGNKAQTVLNGNLKVDFMETENSSSVKKQKALVAKVSQREEMVKKCLGELTEVCKSLGKVFGVHYFNIFNTVTLKKLAESLSSDPEVLLQIDGVTEDKLEKYGAEVISVLQKYSEWTSPAED”: the protein production result is “failed”.
As for “NANLDPKTRVLEHRLLAASSAIAEKLGVSAGDEVLLIRRLRSTGDIPVAILENYLPPAFNDVSLDELEKGGLYDALRSRGVVLKIANQKIGARRAVGEESTLLDIEDGGPLLTVERVALDNSGQVIELGSHCYRPDMYN”, the protein production result is “failed”.
The result for “NDTELPTYRVVSRLSLDDLIETIDEDLDREIEFSEEILDQVDTVGGLIAFEKGRIPLPGTTVTTSGLQLQAEGGRDRRGRIQVRSVLVSVLPVESLSEL” reads “failed”; that for “NIESIENLQGIRALQQQAPQLLSSGLPNEQQFSLLKQAGVDVVINLMPDSSKDAHPDEGKLVTQAGMDYVYIPVDWQNPKVEDVEAFFAAMDQHKGKDVLVHCLANYRASAFAYLYQLKQGQNPNMAQTMTPWNDELAIYPKWQALLTEVSAKYGH”, “not failed”.
As to “NILKIRCAPVTWPIGMGKNFKGVYHILNDEIYLFEAGGERLPHEFDIIKGIDNPELEQRFPLEIQQLRDEIELVQAASNEFNLDEFLAGELTPVFFGSAINNFGIQEILNSLIDWAPAPKPRDATVRMVEPDEPKFSGFIFKIQANMDPKHRDRIAFLRVCSGKFERGMKMKHLRINREIAASSVVTFMSHDRELVEEAYAGDIIGIPNHGNIQIGDSFSEGEQLAFTGIPFFAPELFRSVRIKNPLKIKQLQKGLQQLGEEGAVQVFKPMSGADLILGAVGVLQFEVVTSRLANEYGVEAVFDSASIWSARWVSCDDKKKLAEFEKANAGNLAIDAGGNLAYLAPNRVNLGLTQERWPDIVFHETREHSVKL”, the protein production result is “failed”.
The same measure for “NILSLLLHPRLGAVIQQMLEMPGHAWTVESLASIAHMSRASFAQLFRDVSGTTPLAVLTKLRLQIAAQMFSRETLPVVVIAESVGYASESSFHKAFVREFGCTPGEYRERVRQLA”: “not failed”.
